The text below walks through data of FireProtDB (doi:10.1074/jbc.271.12.6832).

Where “and” joins values, the source holds several entries; their conditions need not be identical. Equal values may be shown once.

For the data set the following is noted: Streptococcus pneumoniae serotype 4 (strain ATCC BAA-334 / TIGR4); pH 6.9; Thermal; DSC; phosphate 20 mM; transition: 4; reversible: no; whole UniProt chain shown.

B1: Autolysin wild type, P06653 (protein)
chain: MEINVSKLRTDLPQVGVQPYRQVHAHSTGNPHSTVQNEADYHWRKDPELGFFSHIVGNGCIMQVGPVDNGAWDVGGGWNAETYAAVELIESHSTKEEFMTDYRLYIELLRNLADEAGLPKTLDTGSLAGIKTHEYCTNNQPNNHSDHVDPYPYLAKWGISREQFKHDIENGLTIETGWQKNDTGYWYVHSDGSYPKDKFEKINGTWYYFDSSGYMLADRWRKHTDGNWYWFDNSGEMATGWKKIADKWYYFNEEGAMKTGWVKYKDTWYYLDAKEGAMVSNAFIQSADGTGWYYLKPDGTLADKPEFTVEPDGLITVK
Regarding B1, the “unfolding enthalpy (van 't Hoff)” value is 50 kcal/mol and 71 kcal/mol and 95 kcal/mol.
